# Results reported in IntAct's records for PubMed 20462492.
# B1: Pre-mRNA-processing factor 19 (Saccharomyces cerevisiae), P32523 (parent)
# chain: MLCAISGKVPRRPVLSPKSRTIFEKSLLEQYVKDTGNDPITNEPLSIEEIVEIVPSAQQASLTESTNSATLKANYSIPNLLTSLQNEWDAIMLENFKLRSTLDSLTKKLSTVMYERDAAKLVAAQLLMEKNEDSKDLPKSSQQAVAITREEFLQGLLQSSRDFVARGKLKAPKWPILKNLELLQAQNYSRNIKTFPYKELNKSMYYDKWVCMCRCEDGALHFTQLKDSKTITTITTPNPRTGGEHPAIISRGPCNRLLLLYPGNQITILDSKTNKVLREIEVDSANEIIYMYGHNEVNTEYFIWADNRGTIGFQSYEDDSQYIVHSAKSDVEYSSGVLHKDSLLLALYSPDGILDVYNLSSPDQASSRFPVDEEAKIKEVKFADNGYWMVVECDQTVVCFDLRKDVGTLAYPTYTIPEFKTGTVTYDIDDSGKNMIAYSNESNSLTIYKFDKKTKNWTKDEESALCLQSDTADFTDMDVVCGDGGIAAILKTNDSFNIVALTP
# partner: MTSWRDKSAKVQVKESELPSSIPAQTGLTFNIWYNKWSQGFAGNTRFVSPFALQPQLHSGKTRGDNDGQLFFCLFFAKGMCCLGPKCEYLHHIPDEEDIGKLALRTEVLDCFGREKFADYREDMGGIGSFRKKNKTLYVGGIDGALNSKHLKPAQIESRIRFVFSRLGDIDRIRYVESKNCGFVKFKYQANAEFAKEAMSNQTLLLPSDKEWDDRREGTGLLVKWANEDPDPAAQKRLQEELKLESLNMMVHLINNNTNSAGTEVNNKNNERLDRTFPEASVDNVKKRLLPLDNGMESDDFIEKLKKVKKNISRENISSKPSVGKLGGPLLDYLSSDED
# Variants of: B1
# Details: with cwc2_yeast CWC2, Q12046
row,Variant,effect of a mutation on the interaction
1,K404A,decreasing interaction
2,R403A,disrupting interaction
3,R403A;K404A,disrupting interaction

# Results, then the variant that gave them:
row,effect of a mutation on the interaction,Variant
1,decreasing interaction,D341A
2,decreasing interaction,Y387A
